# Experimental data reported in patent publication US11819556B2, “Stabilized compositions of radionuclides and uses thereof” (RayzeBio, Inc., priority 2021, dated 2023).
# Test: Radioactivity concentration optimization: radio-TLC purity
# Format: physicochemical
# Settings: 100 mM sodium ascorbate pH 5.80, 0.05 mg/ml DTPA, 25° C.
# Experimental: The mixture was kept at room temperature (25° C.) and protected from light to prevent photodegradation. At different time points, purity of [^225Ac]Ac-DOTA-TATE in the formulated dose were measured by radio-TLC as described in the table below: […]
substance,measurement,setting,value
"(2,2′,2″-(10-(2-4(R)-1-(((4R,7S,10S,13R,16S,19R)-13-((1H-indol-3-yl)methyl)-10-(4-aminobutyl)-4-(((1S,2R)-1-carboxy-2-hydroxypropyl)carbamoyl)-16-(4-hydroxybenzyl)-7-((R)-1-hydroxyethyl)-6,9,12,15,18-pentaoxo-1,2-dithia-5,8,11,14,17-pentaazacycloicosan-19-yl)amino)-1-oxo-3-phenylpropan-2-yl)amino)-2-oxoethyl)-1,4,7,10-tetraazacyclododecane-1,4,7-triyl)triacetate; actinium-225(3+)) [[^225Ac]Ac-DOTA-TATE]",Percentage of ^225Ac present in [^225Ac]Ac-DOTA-TATE,"15 μCi/ml, 0 hour",99.37%
same,Percentage of ^225Ac present in [^225Ac]Ac-DOTA-TATE,"15 μCi/ml, 24 hours",96.92%
same,Percentage of ^225Ac present in [^225Ac]Ac-DOTA-TATE,"15 μCi/ml, 48 hours",96.08%
same,Percentage of ^225Ac present in [^225Ac]Ac-DOTA-TATE,"15 μCi/ml, 72 hours",98.74%
same,Percentage of ^225Ac present in [^225Ac]Ac-DOTA-TATE,"15 μCi/ml, 96 hours",94.83%
same,Percentage of ^225Ac present in [^225Ac]Ac-DOTA-TATE,"15 μCi/ml, 120 hours",93.49%
same,Percentage of ^225Ac present in [^225Ac]Ac-DOTA-TATE,"32 μCi/ml, 0 hour",99.39%
same,Percentage of ^225Ac present in [^225Ac]Ac-DOTA-TATE,"32 μCi/ml, 24 hours",97.92%
same,Percentage of ^225Ac present in [^225Ac]Ac-DOTA-TATE,"32 μCi/ml, 48 hours",97.13%
same,Percentage of ^225Ac present in [^225Ac]Ac-DOTA-TATE,"32 μCi/ml, 72 hours",95.31%
same,Percentage of ^225Ac present in [^225Ac]Ac-DOTA-TATE,"32 μCi/ml, 96 hours",92.52%
same,Percentage of ^225Ac present in [^225Ac]Ac-DOTA-TATE,"32 μCi/ml, 120 hours",85.90%
same,Percentage of ^225Ac present in [^225Ac]Ac-DOTA-TATE,"68 μCi/ml, 0 hour",99.06%
same,Percentage of ^225Ac present in [^225Ac]Ac-DOTA-TATE,"68 μCi/ml, 24 hours",98.22%
same,Percentage of ^225Ac present in [^225Ac]Ac-DOTA-TATE,"68 μCi/ml, 48 hours",95.93%
same,Percentage of ^225Ac present in [^225Ac]Ac-DOTA-TATE,"68 μCi/ml, 72 hours",95.36%
same,Percentage of ^225Ac present in [^225Ac]Ac-DOTA-TATE,"68 μCi/ml, 96 hours",86.92%
same,Percentage of ^225Ac present in [^225Ac]Ac-DOTA-TATE,"126 μCi/ml, 0 hour",99.11%
same,Percentage of ^225Ac present in [^225Ac]Ac-DOTA-TATE,"126 μCi/ml, 24 hours",95.77%
same,Percentage of ^225Ac present in [^225Ac]Ac-DOTA-TATE,"126 μCi/ml, 48 hours",84.99%
same,Percentage of ^225Ac present in [^225Ac]Ac-DOTA-TATE,"301 μCi/ml, 0 hour",99.09%
same,Percentage of ^225Ac present in [^225Ac]Ac-DOTA-TATE,"301 μCi/ml, 24 hours",97.53%
same,Percentage of ^225Ac present in [^225Ac]Ac-DOTA-TATE,"301 μCi/ml, 48 hours",88.78%
same,Percentage of ^225Ac present in [^225Ac]Ac-DOTA-TATE,"550 μCi/ml, 0 hour",98.87%
same,Percentage of ^225Ac present in [^225Ac]Ac-DOTA-TATE,"550 μCi/ml, 24 hours",97.04%
same,Percentage of ^225Ac present in [^225Ac]Ac-DOTA-TATE,"550 μCi/ml, 48 hours",85.63%
